Measured values taken from the supplement of paper PMC9170038.

System: MS2 coat protein
Test: apparent KD of MS2 coat protein; higher = weaker reporter binding
Settings: Eterna round: R107
Method: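 RNA-MaP round R107: designed RNA switches with theophylline, tryptophan, arginine or FMN aptamers are transcribed on-chip within common flanks. They are titrated with SNAP-549-labelled MS2 coat protein in RNA-MaP buffer (100 mM Tris pH 7.5, 80 mM KCl, 4 mM MgCl2), without ligand or with the indicated ligand. Median apparent KD per design.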

[1] = input ligand: theophylline 20 uM
[2] = input ligand: theophylline 2 mM
[3] = input ligand: tryptophan 2.4 mM

Sequence	apparent KD of MS2 coat protein (input ligand: arginine 13.2 mM)	apparent KD of MS2 coat protein [1]	apparent KD of MS2 coat protein [2]	apparent KD of MS2 coat protein (input ligand: none)	apparent KD of MS2 coat protein [3]
CACAGUGCGAAUUUGAAUUCGCACGAUCCUCGAGGACCGGUACGGCCGCCACUCGCGCGGGUCGUACAUGAGGAUCACCCAUGUC [Quermavebe]	25 nM	233 nM	1190 nM	–	–
CCCAGUCAUAACAAAGCAAAUAUACUCGAAGGAGCGUCAUAGUAGGCAGGUAGGUCGCGAGACAUGAGGAUCACCCAUGUAGAGA [zrzmullin]	20.1 nM	33.2 nM	39.2 nM	31.8 nM	35.1 nM
GAUAUAACAAAAGUUGUAUCAGUGGGUGAACGAGGACCGGUACGGCCGCCACUCGGACAUGAGGAUCACCCAUGUCCAUGUGAAA [AstrosExyTryA#18]	11.6 nM	23.1 nM	19.8 nM	14.7 nM	44.3 nM
UUGGGUUUGCGAAGGAGCGGGAAAUAUAUAUAUAUAAUCCUAACAUGAGGAUCACCCAUGUCCCAGGUAGGUCGCGCAGGUUUGG [12.L]	58.1 nM	81.8 nM	73.2 nM	54.2 nM	58.7 nM
UGUAUGGACUGAAGGAGCGGGUUGAUAUCAUGAGGAUCACCCAUGGAAAAGGCGAAAGCCGCCCAGGUAGGUCGCAGUCCAUACU	25.1 nM	38 nM	37.5 nM	–	26 nM
GGUACAUGAGGAUCACCCAUGUAUGGGUACCGAGGACCGGUACGGCCGCCACUCGCAGGACAUGAGGAUCACCCAUGUGCAACCG [SSTA DOUBLE!!! :-D #11]	61 nM	144 nM	184 nM	142 nM	312 nM
AAUACAGCUACGGCCGCCACUUUAACUUGGUAUGGGUCCUUCACAAACAUGAGGAUCACCCAUGUAAGGACCGGGUAGCCUUGUU [theeternabot_exclusion_MS2_Trp_B_35]	21.6 nM	28.4 nM	24 nM	–	–
UGUAACAUGAGGAUCACCCAUGUGCACGAUACCAGCUUCGAAAGAGGCCCUUGGCAGCGUAUGCGUAAGCUGUAUAAUAUAUAUC [#28 SameState-TheophyllineA]	11.1 nM	14.4 nM	–	–	10.6 nM
GGAUAGGACACGGCCGCCACUAGCUAGGAUACUAGCAACAUUUCCUCAGAUGAGGAUCACCCAUCUAGGACCGGGUGUCCUAUCG	25.7 nM	36.5 nM	33.6 nM	26 nM	84.4 nM
UUAAUGGAGCUUUAAUUUACGAUUUCUGAUACCAGUGUUUCAUUUCACCCUUGGCAGCAGUGACAUGAGGAUCACCCAUGUAAUA [JR_Nu_SSTheophyA_Sub022]	23.7 nM	35.5 nM	–	–	26.4 nM
UCGAUGGUACCCGAUACCAGCAAUACAUCACAGACCUGAUACAUGAGGAUCACCCAUGUGUGCCCUUGGCAGCGGGUCCUGAAAA [theeternabot_exclusion_MS2_Theo_B_25]	17.5 nM	28.5 nM	–	–	20.6 nM
AUAUUAAUCGGAAGGAGCGGUACAUGAGGAUCACCCAUGUGCGAAGCCAGCAGAUCCCGUUACCAGGUAGGUCGCCGAGUUAUGA [Begebe]	23.6 nM	39.8 nM	37.5 nM	33 nM	30.7 nM
UGUAUUACGAAAGUAGUACAUCGUGUUCGACGAGGACCGGUACGGCCGCCACUCGGACAUGAGGAUCACCCAUGUAGCGAAAGCU [Tryptophan A 25]	93.8 nM	354 nM	491 nM	–	–
GAGACGUCGGGAAGGAGCGCAUCCAAACCACACAUGAGGAUCACCCAUGUAUAAAUAUGCAUGCAGGUAGGUCGCCCGGUGUCCA [Xegeisge]	49.9 nM	120 nM	114 nM	85.7 nM	86.1 nM
ACUAGAGGUGGAAGGAGCGGGAGACAUGAGGAUCACCCAUGUGAAGUUUCGAGAGGAUCAUCCCAGGUAGGUCGCCAUGUCGAAA [vvbvmullin]	35.3 nM	46.9 nM	61.6 nM	27.4 nM	43.7 nM
AUAUGAUCAUAUGAUACCAGAAAUGGUAUUCCUUUCUUUCUUACAUGAGGAUCACCCAUGUUCCCUUGGCAGCAUAUGAUCAUAU [ETHB #1]	90.7 nM	210 nM	–	–	153 nM
GUACCACAGUCGGCCGCCACUAAGUUGUAUUCCAGCAGGACGAAACAUGAGGAUCACCCAUGUCCUAGGACCGGGACUUCCGUCG [theeternabot_sameState_MS2_Trp_B_41]	16.9 nM	25.2 nM	25.6 nM	–	–
AAGGUGAUCCGUGAUACCAGCUCAACAUGAGGAUCACCCAUGUAAGCCUGGAAACAGGCGAGCCCUUGGCAGCACGGUUGCCAAG [(M)'-(Theo1)-(Ms2)-(Theo2)-(M'')-(T2)'_Design1]	38.6 nM	138 nM	25.4 nM	165 nM	163 nM
AAAAGACAUGAGGAUCACCCAUGUAGAGAUACCAGAUGCAUGGACAUCCCUUGGCAGCUCGUCACUUUCUAUAUUUUCCAGACGC [theeternabot_sameState_MS2_Theo_A_37]	31 nM	59.1 nM	–	–	59.1 nM

Sequence	apparent KD of MS2 coat protein (input ligand: arginine 13.2 mM)	apparent KD of MS2 coat protein [1]	apparent KD of MS2 coat protein [2]	apparent KD of MS2 coat protein (input ligand: none)	apparent KD of MS2 coat protein [3]
AGCGGAACGGAAGGGUCCCAAAAUUGUGAUACCAGCCUUGAAUCCGGCCCUUGGCAGCACAUGAGGAUCACCCAUGUACUGCGAU [Laanor]	11.2 nM	19.2 nM	–	–	12.8 nM
AAGACAUGAGGAUCACCCAUGUCGUCUACACGAGGACCGGUACGGCCGCCACUCGUUUGCCAAUGAGCGCAUGCGGCCUGGGUAU [Exclusion Tryp A GF3]	13.2 nM	17.9 nM	16.3 nM	–	–
GGUCUGAAAACCGAUCAAAGAUCGGAAGAUACCAGAGGGUGAUCCCUCCCUUGGCAGCUUCACAUGAGGAUCACCCAUGUAGACC [Omei inspired #BothOrNeither]	29.3 nM	188 nM	–	–	82.5 nM
AAUACCGGUCCUCGAGGGUGAUCCUCAUGACGAGGACCGGUACGGCCGCCACUCGAUAACAUGAGGAUCACCCAUGUAAUCGAGU [|T'-M'-Trp-Ms2|_Design7b]	34.1 nM	70.4 nM	72.4 nM	–	–
UCGGGCAGAGCGGCCGCCACUGUAUGGCAUGCGGAUGAAGGAACAUGAGGAUCACCCAUGUAGAUUAGGACCGGGCUUGCGGAGA [p''pmullin]	29.1 nM	22.9 nM	17.7 nM	19.8 nM	20 nM
AAAAGAGGUGGAAGGAGCGGGAGACAUGAGGAUCACCCAUGUGAAGUAACGAAAGGUACAGCCCAGGUAGGUCGCCAUGUCGAAA [qxqamullin]	20.6 nM	73.5 nM	40.4 nM	31.7 nM	32.8 nM
ACACGGAAUGAUGGAUCACCUCGUUAAUAACGAGGACCGGUACGGCCGCCACUCGAAAACCGUGACCUGUACGAAAAGUGCAGGA [TrypAS 15 #SwitchBubble #HomemadeMS2 #StaticStrem #MS2Early]	27.3 nM	314 nM	488 nM	33.6 nM	76.1 nM
AAUUCCUAACAUGAGGAUCACCCAUGUGAAGGAGCGCCGAAUAAGGCAGGUAGGUCGCACAUGGAACCGCUACGAAAGUAGCAAA	22.5 nM	23.6 nM	21.6 nM	23.5 nM	17.8 nM
GAUAUGGAAACAUGUCAGAUCCUUACCGGUCGAGGACCGGUACGGCCGCCACUCGCAAAUAUUGUACAUGAGGAUCACCCAUGUA [Ex Tryptophan A 17]	13.2 nM	15.4 nM	13.6 nM	–	–
AAGACUGGACAUAAGUCCAGUCAACCUGAAGGAGCGGGUGGGUGCCCAGGUAGGUCGCGGGAACAUGAGGAUCACCCAUGUAUAA [ArgAS 5 #BothOrNeither #OpenEnded]	17.4 nM	16.9 nM	31.9 nM	25.8 nM	24.6 nM
GGCACAUAGUCGGCCGCCACUAGUGGGAAAUGGGAGAACAUGAGGAUCACCCAUGUAGCGUAGCCUAGGACCGGGACUAUGUGCC [Elephant]	85.3 nM	172 nM	231 nM	–	–
AGCACUGUGACGGCCGCCACUACAUAACAUGGGUGGUCAGGUUCAUUACAUGAGGAUCACCCAUGUAGGACCGGGUCUCAGUGCA [Omei Trp Exc B A v11]	12.1 nM	17.7 nM	12.6 nM	–	–
AUGUCGUUGAAUAUAGCGGCUUGGAGUGAUACCAGAAUGAUCCAAUUCCCUUGGCAGCAUUACAUGAGGAUCACCCAUGUUCCAG [SSTheo A #23]	24.1 nM	55.5 nM	89.6 nM	37.1 nM	48.6 nM
CCUAACCGAUCGGCCGCCACUGACCGGUACCUCUUCGAAACCCGCCACAUGAGGAUCACCCAUGUCAGGACCGGGAUUGCACAGG [Inxeus]	14.4 nM	23 nM	17.8 nM	17.2 nM	38.1 nM
CGGCCCUCACCUGAGGAUCACCCAGGUGAUACCAGCCUGGAAACAGGCCCUUGGCAGCACCAGGUCAUCAAAGAUGACCAAGCCG [TheoAX 23 #SwitchBubble]	9.35 nM	15.2 nM	128 nM	10.5 nM	10.9 nM
GCAAUACAUGAGGAUCACCCAUGUGCAGAUACCAGAGGUGCGUGCCUCCCUUGGCAGCUGCGACGCUCUGGAAGCUUGUGUGUCU [Exclusion Theophylline A GF27]	18.4 nM	26.2 nM	–	–	21.2 nM
AGGAGACAUGAGGAUCACCCAUGUCCAGAUACCAGAAUGUCUUUGUUCCCUUGGCAGCUGUGGAAAUCUGACCUGCCUCGGUCUG [theeternabot_sameState_MS2_Theo_A_31]	14.6 nM	17.9 nM	–	–	15.2 nM
AUUGUCGUGUCGGCCGCCACUGUCAUGGUUUUCGUGGAAAACAUGAGGAUCACCCAUGUAAUUGACAGGACCGGGACAUGGCGGC [Ricegesoer]	9.35 nM	11.1 nM	9.4 nM	–	–
ACAUGAGGAUCACCCAUGUCUGCCUCGGAUACCAGCGGAAGAAAACGCCCUUGGCAGCCGAACAUGAGGAUCACCCAUGUAGGCU [Same State Theophylline A GF30]	28.8 nM	55.1 nM	–	–	45.2 nM
